Values of other authors as cited in patent US10966977B2, “Combination of anti-CD20 antibody, P13 kinase-delta selective inhibitor, and BTK inhibitor to treat b-cell proliferative disorders” (TG Therapeutics, Inc., priority 2016, dated 2021).
Entries after “also recorded” stand apart in the source; their conditions may differ. Counter-ions that a name gives are not always drawn.

What was measured:
[1] = tested on: relapsed and refractory hematologic malignancies; details: single agent
CD20 = biological target: T1, CD20 (Homo sapiens, UniProt P11836)
T1 sequence (P11836 1-297): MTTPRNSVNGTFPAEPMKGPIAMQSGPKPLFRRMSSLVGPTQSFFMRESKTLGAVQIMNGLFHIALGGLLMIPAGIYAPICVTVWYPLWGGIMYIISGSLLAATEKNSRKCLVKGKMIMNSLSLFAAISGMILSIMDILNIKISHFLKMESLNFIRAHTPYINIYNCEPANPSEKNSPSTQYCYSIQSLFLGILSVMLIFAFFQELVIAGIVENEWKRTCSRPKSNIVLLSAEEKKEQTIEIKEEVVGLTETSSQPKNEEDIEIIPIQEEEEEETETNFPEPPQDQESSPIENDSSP

[2] = single agent
CD20 antigen = biological target: T2, CD20 antigen (Homo sapiens, UniProt P11836)
T2 sequence (P11836 1-297): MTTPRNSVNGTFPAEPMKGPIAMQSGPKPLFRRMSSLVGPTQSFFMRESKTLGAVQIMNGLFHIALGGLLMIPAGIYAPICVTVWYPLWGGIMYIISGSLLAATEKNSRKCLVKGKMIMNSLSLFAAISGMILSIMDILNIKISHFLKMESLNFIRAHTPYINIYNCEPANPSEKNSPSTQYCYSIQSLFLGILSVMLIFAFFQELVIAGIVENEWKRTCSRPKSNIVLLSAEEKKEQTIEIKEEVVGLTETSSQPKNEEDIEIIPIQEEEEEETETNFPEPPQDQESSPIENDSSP

Molecule: CC(C)Oc1ccc(-c2nn([C@@H](C)c3oc4ccc(F)cc4c(=O)c3-c3cccc(F)c3)c3ncnc(N)c23)cc1F [TGR-1202, (S)-2-(1-(4-amino-3-(3-fluoro-4-isopropoxyphenyl)-1H-pyrazolo[3,4-d]pyrimidin-1-yl)ethyl)-6-fluoro-3-(3-fluorophenyl)-4H-chromen-4-one p-toluenesulfonic acid (PTSA) salt]
- hepatic toxicity [1]: no reported hepatic toxicity
- tolerability ([1]; patients with relapsed or refractory hematologic malignancies): well-tolerated

Molecule: ofatumumab: anti-CD20 IgG1κ human monoclonal antibody
- dissociation rate from CD20 compared to rituximab (CD20): slower rate

B1: Ublituximab: chimeric monoclonal antibody targeting a unique epitope on the CD20 antigen, glycoengineered for enhanced affinity for Fcγ RIIIa receptors (antibody, V domains shown)
VH: QAYLQQSGAELVRPGASVKMSCKASGYTFTSYNMHWVKQTPRQGLEWIGGIYPGNGDTSYNQKFKGKATLTVGKSSSTAYMQLSSLTSEDSAVYFCARYDYNYAMDYWGQGTSVTVSS
VL: QIVLSQSPAILSASPGEKVTMTCRASSSVSYMHWYQQKPGSSPKPWIYATSNLASGVPARFSGSGSGTSYSFTISRVEAEDAATYYCQQWTFNPPTFGGGTRLEIK
modifications: Ublituximab Variable heavy chain; Ublituximab Variable light chain
- responses in rituximab refractory patients [2]: Responses with single agent ublituximab were observed in rituximab refractory patients; also recorded: Responses with single agent ublituximab have been observed in rituximab refractory patients
- ADCC activity compared with rituximab and ofatumab (CD20 antigen): greater antibody-dependent cellular cytotoxicity
